In patent US20180214548A1 (SHANGHAI YUNYI HEALTHCARE AND TECHNOLOGY, published 2018):

Columns and labels:
[1] = biological target: T1, cyno monkey PD-1^ECD-hFc protein (cyno monkey, UniProt B0LAJ3 25-167); test: ELISA, coated cyno PD-1ECD-hFc
T1 construct: also called cyno PD-1^ECD-hFc; not shown: human IgG Fc fragment (hFc) and its junction to the ECD

[2] = biological target: T2, human PD-1^ECD-hFc protein (Immunogen A) (human, UniProt Q15116 25-167); test: ELISA, coated human PD-1ECD-hFc
T2 construct: also called PD-1-hFc; hPD-1^ECD-hFc; not shown: human IgG Fc fragment (hFc)
T2 sequence (Q15116 25-167): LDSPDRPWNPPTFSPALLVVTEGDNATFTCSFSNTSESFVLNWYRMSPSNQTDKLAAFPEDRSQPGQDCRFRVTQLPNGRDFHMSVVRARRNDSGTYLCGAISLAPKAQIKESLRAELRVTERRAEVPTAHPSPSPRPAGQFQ

[3] = biological target: T3, human PD-1, full length, on cells (human, UniProt Q15116 25-288); test: flow cytometry on CHO-K1-hPD-1 cells
T3 construct: whole, on cells; in the lymphocyte assays the natural PD-1 of human T cells/PBMCs; also called hPD-1; CHO-K1-hPD-1
T3 sequence (Q15116 25-288): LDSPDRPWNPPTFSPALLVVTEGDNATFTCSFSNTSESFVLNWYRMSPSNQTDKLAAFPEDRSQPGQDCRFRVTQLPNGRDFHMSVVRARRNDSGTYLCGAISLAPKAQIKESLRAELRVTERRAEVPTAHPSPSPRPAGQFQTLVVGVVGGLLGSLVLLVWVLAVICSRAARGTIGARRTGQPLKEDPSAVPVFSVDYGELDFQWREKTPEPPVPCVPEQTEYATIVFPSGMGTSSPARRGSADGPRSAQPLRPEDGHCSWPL

[4] = biological target: T3, human PD-1, full length, on cells; test: flow cytometry on activated human PBMCs (MFI)
[5] = biological target: T4, ICOS (human, UniProt Q9Y6W8 21-140, limits assumed); test: ELISA, coated protein, antibody concentration not given
T4 sequence (looked up): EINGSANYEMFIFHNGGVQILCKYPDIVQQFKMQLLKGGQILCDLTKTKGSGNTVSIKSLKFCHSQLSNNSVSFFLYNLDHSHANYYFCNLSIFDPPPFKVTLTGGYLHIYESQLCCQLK

[6] = biological target: CD28 (human, UniProt P10747 19-152); test: as above
Target sequence in this assay (P10747 19-152 limits assumed): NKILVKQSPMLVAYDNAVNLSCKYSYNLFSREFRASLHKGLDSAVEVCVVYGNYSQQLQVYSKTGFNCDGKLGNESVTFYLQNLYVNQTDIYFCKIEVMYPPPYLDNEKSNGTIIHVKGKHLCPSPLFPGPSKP

[7] = biological target: T5, NC-Fc; test: as above
T5 construct: seemingly a negative control Fc protein

[8] = biological target: T6, CTLA4 (human, UniProt P16410 37-162, limits assumed); test: as above
T6 sequence (looked up): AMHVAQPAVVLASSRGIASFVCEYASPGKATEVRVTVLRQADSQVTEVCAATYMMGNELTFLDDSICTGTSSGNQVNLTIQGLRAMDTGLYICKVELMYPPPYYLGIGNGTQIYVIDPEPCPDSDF

[9] = biological target: T7, B7.1 (human, UniProt P33681 35-242); test: as above
T7 sequence (looked up): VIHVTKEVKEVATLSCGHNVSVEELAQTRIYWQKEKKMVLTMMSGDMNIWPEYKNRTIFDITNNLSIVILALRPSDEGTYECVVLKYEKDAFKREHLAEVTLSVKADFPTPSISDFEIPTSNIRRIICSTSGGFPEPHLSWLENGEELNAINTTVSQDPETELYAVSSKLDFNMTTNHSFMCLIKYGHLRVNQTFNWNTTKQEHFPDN

[10] = biological target: T2, human PD-1^ECD-hFc protein (Immunogen A); test: as above
[11] = biological target: T8, His-tagged human PD-1 ECD protein (human, UniProt Q15116 25-167); test: SPR Biacore T200, antibody captured by anti-human Fc, His-tagged hPD-1 ECD as analyte
T8 construct: also called His-tagged hPD-1 ECD; His-tagged PD-1^ECD; not shown: His tag
T8 sequence (Q15116 25-167): as the sequence (Q15116 25-167) above
Procedure: Anti-human Fc IgG was immobilized on flow cells 1 and 2: HBS-EP+(10 mM HEPES, 150 mM NaCl, 3 mM EDTA, 0.05% P20, pH 7.4) was used as running buffer, and the immobilization of anti-human Fc IgG was carried out using the immobilization wizard template. Flow cells 1 and 2 of a Series S CM5 sensor chip were activated with freshly-mixed 50 mmol/L NHS and 200 mmol/L EDC. 20 ug/mL of anti-human Fc IgG diluted in 10 mM NaAC (pH 4.5) was injected into the activated flow cells 1 and 2. The remaining active coupling sites were blocked with 1M ethanolamine.
Recombinant His-tagged hPD-1 ECD protein was diluted to 50 nM, followed by four 2-fold serial dilutions with HBS-EP+ buffer. […] KD measurements were carried out with HBS-EP+ as the running buffer. Each antibody was injected over the CM5 sensor flow cell 2 with a flow rate of 10 uL/min to reach response 230 RU. Prepared His-tagged hPD-1 ECD protein was then injected over flow cells 1 and 2, at a flow rate of 30 uL/min for 180 sec. Buffer flow was maintained for 400 seconds for dissociation measurements (30 uL/min). To remove the tested antibody from the surface, 10 mM glycine-HCl pH 1.5 was injected for 20 seconds (30 uL/min). Flow cell 1 was used as reference flow cell. The above steps were repeated for each concentration of serially-diluted His-tagged PD-1^ECD protein. The KD value for each antibody was evaluated using Biacore T200 evaluation software 1.0, and the data was fit with a 1:1 binding model.

[12] = biological target: T9, ICOS (human, UniProt Q9Y6W8 21-140, limits assumed); test: ELISA on coated protein (Table 22)
T9 sequence (looked up): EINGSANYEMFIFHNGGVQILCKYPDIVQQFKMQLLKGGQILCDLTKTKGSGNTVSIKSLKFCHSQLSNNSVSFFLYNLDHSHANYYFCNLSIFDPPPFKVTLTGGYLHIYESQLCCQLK

[13] = biological target: CD28 (human, UniProt P10747 19-152); test: ELISA on coated protein (Table 22)
Target sequence in this assay (P10747 19-152 limits assumed): as the sequence (P10747 19-152 limits assumed) above

[14] = biological target: T10, CTLA4 (human, UniProt P16410 37-162, limits assumed); test: ELISA on coated protein (Table 22)
T10 sequence (looked up): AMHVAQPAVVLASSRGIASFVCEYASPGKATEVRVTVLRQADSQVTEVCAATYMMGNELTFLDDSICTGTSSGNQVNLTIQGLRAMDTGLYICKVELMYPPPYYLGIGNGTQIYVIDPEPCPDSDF

[15] = biological target: T11, B7-1 (human, UniProt P33681 35-242); test: ELISA on coated protein (Table 22)
T11 sequence (looked up): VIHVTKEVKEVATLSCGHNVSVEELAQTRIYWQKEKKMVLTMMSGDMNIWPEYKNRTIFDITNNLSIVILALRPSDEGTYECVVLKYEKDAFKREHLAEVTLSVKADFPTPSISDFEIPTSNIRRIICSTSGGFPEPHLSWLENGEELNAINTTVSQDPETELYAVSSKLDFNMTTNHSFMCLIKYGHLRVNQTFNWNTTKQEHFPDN

[16] = biological target: T12, human PD-1^ECD-hFc protein (Immunogen A) (human, UniProt Q15116 25-167); test: protein-based receptor ligand blocking assay (fully human antibodies), blocked ligand PD-L2
T12 construct: Biotinylated for the Octet assay; also called PD-1-hFc; hPD-1^ECD-hFc; not shown: human IgG Fc fragment (hFc)
T12 sequence (Q15116 25-167): as the sequence (Q15116 25-167) above

[17] = biological target: T13, full length human PD-1 on cells (human, UniProt Q15116 25-288); test: cell-based receptor ligand blocking assay (fully human antibodies), blocked ligand PD-L1
T13 construct: Also used here for PD-1 on human T cells/PBMC; also called CHO-K1-hPD-1; hPD-1
T13 sequence (Q15116 25-288 limits assumed): as the sequence (Q15116 25-288) above

[18] = biological target: T12, human PD-1^ECD-hFc protein (Immunogen A); test: protein-based receptor ligand blocking assay (fully human antibodies), blocked ligand PD-L1
Procedure: Purified PD-1^ECD-hFc (Example 2) was diluted with PBS to a final concentration of 1.0 ug/mL, and 100 uL diluted PD-1^ECD-hFc were added to each well of a 96-well plate that was then sealed with plastic film and incubated at 4° C. overnight. The plate was washed twice with wash buffer (PBS+0.01% (v/v) Tween 20) and incubated with blocking buffer (PBS+[…]) at room temperature for 2 hours. The blocking buffer was aspirated, and 50 uL purified anti-PD-1 antibodies from Example 2 were added to each well of 96-well plate. […] The plate was washed three times with wash buffer (PBS+0.01% (v/v) Tween 20). 100 uL HRP-conjugated streptavidin (Sigma) were then added to each well and incubated at 37° C. for 2 hours. The plate was then washed three times with wash buffer, and 100 uL TMB substrate were added to each well. After 30 minutes of incubation at room temperature, the reaction was stopped by adding 100 uL stop solution (0.1N HCl). The absorbance at OD450 nm was measured with an ELISA plate reader (384plus SpectraMax, Molecular Devices).

T1 sequence (B0LAJ3 entry or part of it limits assumed): as the sequence (Q15116 25-167) above, with D2E, P10A, V19L, T35A, Q75R counted along it

B1: fully human anti-PD-1 antibody 76G5B3 (antibody, human IgG4 S228P, kappa, V domains shown)
VH: QVQLVESGGGVVQPGRSLRLSCAASGFTFSDYGFHWVRQAPGKGLEWVAVIWYDGSNEYYTDSVKGRFTISRDNSKNTLYLQMNSLRAEDTAMYFCVVNPFDYWGQGTLVTVSS
VL: DIQMTQSPSSLSAFVGDRVTITCRASQGINHYLAWYQQKPGKAPNLLILAASTLLSGVPSRFGGRGSGTDFTLIISSLQPEDVATYYCQKYDSAPYTFGQGTKLEIKR
[1]
  OD450 nm at 0 nM: 0.06 OD450
  OD450 nm at 0.0001 nM: 0.06 OD450
  OD450 nm at 0.001 nM: 0.08 OD450
  OD450 nm at 0.01 nM: 0.2 OD450
  OD450 nm at 0.1 nM: 1.06 OD450
  OD450 nm at 1 nM: 2.32 OD450
  OD450 nm at 10 nM: 2.41 OD450
  OD450 nm at 100 nM: 2.45 OD450
[2]
  OD450 nm at 0 nM: 0.09 OD450
  OD450 nm at 0.0001 nM: 0.1 OD450
  OD450 nm at 0.001 nM: 0.12 OD450
  OD450 nm at 0.01 nM: 0.28 OD450
  OD450 nm at 0.1 nM: 1.34 OD450
  OD450 nm at 1 nM: 2.47 OD450
  OD450 nm at 10 nM: 2.44 OD450
  OD450 nm at 100 nM: 2.58 OD450
[3]
  MFI at 0 nM: 4.1 MFI
  MFI at 0.01 nM: 22.9 MFI
[4]
  EC50 (read off the curve): ~0.2 nM
[5]
  OD450 nm: 0.38 OD450
[6]
  OD450 nm: 0.1 OD450
[7]
  OD450 nm: 0.41 OD450
[8]
  OD450 nm: 0.32 OD450
[9]
  OD450 nm: 0.37 OD450
[10]
  OD450 nm: 3.01 OD450
[11]
  Kd: 0.936 nM
  koff: 9.35e-05 s⁻¹
  kon: 100000 M⁻¹ s⁻¹

B2: fully human anti-PD-1 antibody 76G5B3 (antibody, human IgG4 S228P, kappa, V domains shown)
VH: QVQLVESGGGVVQPGRSLRLSCAASGFTFSDYGFHWVRQAPGKGLEWVAVIWYDGSNEYYTDSVKGRFTISRDNSKNTLYLQMNSLRAEDTAMYFCVVNPFDYWGQGTLVTVSS
VL: DIQMTQSPSSLSAFVGDRVTITCRASQGINHYLAWYQQKPGKAPNLLILAASTLLSGVPSRFGGRGSGTDFTLIISSLQPEDVATYYCQKYDSAPYTFGQGTKLEIKR
notes: also called 76G5B3 (fully human, IgG4 S228P / kappa)
[12]
  binding result: no binding
[13]
  binding result: no binding
[14]
  binding result: no binding
[15]
  binding result: no binding
[16]
  IC50 (read off the curve): ~8 nM
[17]
  IC50 (read off the curve): ~0.3 µg/mL
[18]
  IC50 (read off the curve): ~2 nM

B3: fully human anti-PD-1 antibody 223G6B5 (antibody, human IgG4, V domains shown)
VH: QVQLQESGPGLVKPSETLSLTCAVSGHSIRGSYFWGWIRQPPGRGLEWIGSIYHSGSTYTNPSLKSRATISVDTSKNQFSLKLNSVTAADTAVYYCARDLDIATTRDYWGQGTLVTVSS
VL: DIQLTQSPSFLSASVGDRVTIICRASQGINNYLAWYQQKPGKAPKLLIYAASTLQSGVPSRFSGSGSGTEFTLTISSLQPEDFATYYCQQLDSYPRTFGQGTKVEIKR
notes: also called 223G6B5 (fully human, IgG4 S228P / kappa)
[12]
  binding result: no binding
[13]
  binding result: no binding
[14]
  binding result: no binding
[15]
  binding result: no binding
